According to the RNAGym collection of RNA variant scans (doi:10.1073/pnas.2313332121):

B1: TPR t1 (parent)
chain: GACCAAUCUGCCCUCAGAGCUCGAGAACAUCUUCGGAUGCAGAGGAGGCAGGCUUCGGUGGCGCGAUAGCGCCAACGUCCUCAACCUCCAAUGCAUCCCACCACAUGAUGAUGCCUGAAGAGCCUUGGUUUUUUG

Variants of: B1
Assay: polymerase ribozyme fitness, log enrichment relative to wild type (log ratio); higher = more active; in vitro selection for triplet polymerase activity
In short: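 A heterodimeric triplet polymerase ribozyme had each of its subunits mutagenized by PCR into a library, which was transcribed. One round of in vitro selection, done in triplicate, annealed each library with a biotinylated primer, its partner subunit and triplets, then incubated it frozen at −7 °C before gel excision of extended constructs, streptavidin-bead capture and RT-PCR. Fitness is the logarithm of genotype enrichment relative to wild-type enrichment, based on Illumina sequencing of inputs and outputs and inverse-variance-weighted replicate averages. A base-2 logarithm is used, and genotypes were kept only with ≥10 input reads and ≥1 read per output.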

Variant	polymerase ribozyme fitness (log ratio)
GACCAAUCUGCCCUCAGAGCUCGAGAACAUCUUCGGAUGCAGAGGAGGCAGGCAUCGGUGGCGCGAUAGCGCCAACGUCCUCAACCUCCAAUGCAUCCCACCACAUGAUGAUGCCUGAAGAGCCUUGGUUUUUUG	0.0154
GACCAAUCUGCCCUCAGAGCUCGAGAACAUCUUCGGAUGCAGAGGAGGCAGGCAUCGGUGGCGCGAUAGCGCCAACGUCCUCAACUUCCAAUGCAUCCCACCACAUGAUGAUGCCUGAAGAGCCUUGGUUUUUUG	0.24
GACCAAUCUGCCCUCAGAGCUCGAGAACAUCUUCGGAUGCAGAGGAGGCAGGUUUCGGUGGCGCGAUAGCGCCAACGUCCUCAACCUCCAAUGCAUCCCACCACAUGAUGAUGCCUGAAGAGCCUGGGUUUUUUG	-1.77
GACCAAUCUGCCCUCAGAGCUCGAGAACAUCUUCGGAUGCAGAGGAGGCAGGCAUCGGUGGCGCGAUAGCGCCAACGUCCUCAACUUCCAAUGCAUUCCAGCACAUGAUGAUGCCUGAAGAGCCUUGGUUUUUUG	-2
GACCAAUCUGCCCUCAGAGCUCGAGAACAUCUUCGGAUGCAGAGGAGGCAGGCAUCGGUGGCGCGAUAGCGAUAACGUCCUCAACCUCCACUGCAUCCCACCACAUGAUGAUGCUUGAAGAGCCUUGGUUUUUUG	-4.35
GACCAAUCUGCCCUCAGAGCUCGAGAACAUCUUCGGAUGCAGAGGAGGCAGGCAUCGGUGGUGCGAUAGCGCCAACGUCCUCAACCUCCAAUGCAGCCCACCACAUGAUGAUGCCUGAAGAGCCUUGGUUUUUUG	-0.523
GACCAAUCUGCCCUCAGAGCUCGAGAACAUCUUCGGAUGCAGAGGAGGCAGGUUGCGGUGGCUCGAUAGCGCCAACGUCCCCAACCUCCAAUUCAUCCCACCACAUGAUGAUGCCCGAAGAGCCUUGGUUUUUUC	-5.21
GACCAAUCUGCCCUCAGAGCUCGAGAACAUCUUCGGAUGCAGAGGAGGCAGGCAUCGGUGGCGCGAUAGCGCCAACGUCCUCAACCUCCAAUGUAUCCCACCACAUGAGGAUGCCUGAAGAGCCUUGGUUUUUUG	-5
GACCAAUCUGCCCUCAGAGCUCGAGAACAUCUUCGGAUGCAGAGGAGGCAGGUUUCGGUGGCGCGAUAGCGCCAACGCCCUCAACCUCUAAUGCGUCCCAGCACAUGAUGAUGUCUGAAGAGCCAUGAUUUUUUG	-5.82
GACCAAUCUGCCCUCAGAGCUCGAGAACAUCUUCGGAUGCAGAGGAGGCAGGCAUCGGUGGCGCGAUAGUGCCAACGUCCUCAACCUGUAAUGCAUCCCACCACAUGAUGAUGCAUGAAGAGCCUUGGUUUUUUG	-0.838
GACCAAUCUGCCCUCAGAGCUCGAGAACAUCUUCGGAUGCAGAGGAGGCAGGUUUCGGUGGCGCGAUAGCGCCAACGUCCCCAACCUCCAAUGCAACCCACCACAUGAUGAUGCCUGAAGAGCCUUGGUUUUUUG	-2.89
GACCAAUCUGCCCUCAGAGCUCGAGAACAUCUUCGGAUGCAGAGGAGGCAGGUCUCGGUGGCGCGAUAGCGCCAACGUCCUCAACCUCCGAUGCAUCCCACCACAUGAUGAUGCCUGAAGAACCUUGGUUUUUUG	-0.961
GACCAAUCUGCCCUCAGAGCUCGAGAACAUCUUCGGAUGCAGAGGAGGCAGGCAUAGGUGGCGCGAUAGCGCCAACGUCCUCAACCUCCAAUGCAUCCCACCACAUGAUGAUGCCUGAAGAGCAUUGGUUUUUUG	1.58
GACCAAUCUGCCCUCAGAGCUCGAGAACAUCUUCGGAUGCAGAGGAGGCAGGCAUAGGUGGCGCGAUAGCGCCAACGUCCUCAACCUCCAAUGCAUCCCACCACAUGAUGAUGCCUGAAGAGCCUUGGUUUUUUG	0.502
GACCAAUCUGCCCUCAGAGCUCGAGAACAUCUUCGGAUGCAGAGGAGGCAGGCAUCGGUGGCGCGAUAGCGAUAACGUCCUCAACCUCCACUGCAUCCCACCACAUGAUGAUGCUUGAAGAGCCUUGGAUUUUUG	-4.31
GACCAAUCUGCCCUCAGAGCUCGAGAACAUCUUCGGAUGCAGAGGAGGCAGGCAUCGGUGGCGCGAUAGCGCAAACGUACUCAACCUCCAAUGCAUCCCACCACAUCAUGAUGCCUGAGGAGCCUUGGUUUUUUG	-6.96
GACCAAUCUGCCCUCAGAGCUCGAGAACAUCUUCGGAUGCAGAGGAGGCAGGUUUCGGUGGCGCGAUAGCGCCAACGUCCUCAACCUCCAAUGCAGCCCACCACAUGAUGAUCCCUGAAGAGCCUUGGUUUUUUG	-2.77
GACCAAUCUGCCCUCAGAGCUCGAGAACAUCUUCGGAUGCAGAGGAGGCAGGCAUCGGUGGCGCGAUAGCGCCAACGUCCUCAACCUCCAAUGCAUCCCACCACUUGAUGAUGCCUGAAGAGCCUUGGUUUUUUG	-1.84
GACCAAUCUGCCCUCAGAGCUCGAGAACAUCUUCGGAUGCAGAGGAGGCAGGUUGCGGUGGCGCGAUAGCGCCAACGUCCUCAACCUCCAAUGCAUCCCACCAUAUGAUGAUGCCUGAAGAGCCUUGGUUUUUUG	0.237
GACCAAUCUGCCCUCAGAGCUCGAGAACAUCUUCGGAUGCAGAGGAGGCAGGCAUCGGUGGCGCGAUAGCGCCAACGUCCUCUACCUCCAAUGCAUCCCACCACAUGAUUAUGCCUGAAGAGCCUUGGUUUUUUG	-3.19
GACCAAUCUGCCCUCAGAGCUCGAGAACAUCUUCGGAUGCAGAGGAGGCAGGCAUCGGUGGCGCGAUAGCGCAAACGUCCUCAACCUACAAUGCAUCCCACCACAUGAUGAUGCCUGAAGAGCCUUGGUUUUUUG	-0.61

Variant	polymerase ribozyme fitness (log ratio)
GACCAAUCUGCCCUCAGAGCUCGAGAACAUCUUCGGAUGCAGAGGAGGCAGGUUUCGGUGGCGCGAUAGCGCCAACGUCCUCAACCUCCAAUGCAUCCCACCACAUGAUGAUGCCUGAAGAGCCUUGGUUUCUUG	-0.221
GACCAAUCUGCCCUCAGAGCUCGAGAACAUCUUCGGAUGCAGAGGAGGCAGGCAUCGGUGGCGUGAUAGCGUCAACGUCCUCAACCUCCAAUGCAUCCCACCACAUGAUGAUGCCUGAAGAGCCUUGGUUUUUUG	0.146
GACCAAUCUGCCCUCAGAGCUCGAGAACAUCUUCGGAUGCAGAGGAGGCAGGCAUCGGUGGAGCGAUAGCGCCAACGUCCUCAACCUCCAAUGCCUCCCACCACAUGAUGAUGCCUGAAGAGCCUUGGUUUUUUG	-2.03
GACCAAUCUGCCCUCAGAGCUCGAGAACAUCUUCGGAUGCAGAGGAGGCAGGCAUCGGUGGAGCGAUAGCGCCAACGUCCUCAACCUCCAAUGCAUCCCACCACAUGAUGAUGCCUGAAGAGCCUUGGUUUUUUG	-0.751
GACCAAUCUGCCCUCAGAGCUCGAGAACAUCUUCGGAUGCAGAGGAGGCAGGCAUCGGUGGUGCGAUAGCGCCAACGUCCUCAACCUCCAAUGCAUCCCACCACAUGAUGAUGCCUGAAGAGCCUUGGUUUUUUG	-1.02
GACCAAUCUGCCCUCAGAGCUCGAGAACAUCUUCGGAUGCAGAGGAGGCAGGUUUCGGUGGCGCGAUAGCGCCAACGUCCUCAACCUCCAAUGCAUCCCACCACAUGAUGAUGCCUGAAGAGCCUUGGUUGUUUG	-0.948
GACCAAUCUGCCCUCAGAGCUCGAGAACAUCUUCGGAUGCAGAGGAGGCAGGCAUCGGUGGCGCGAUAGGGCCAACGUCCUCAACCUCCAAUGCAUCCCACCACAUGAUGAUGCCUGGAGAGCCUUGGUUUUAUU	-2.84
GACCAAUCUGCCCUCAGAGCUCGAGAACAUCUUCGGAUGCAGAGGAGGCAGGCAUCGGUGGCGCGAUAGCGGCAACGUCCUCAACCUCCAAUGCAUCCCACCACAUGAUGAUGCCUGAAGAGCCUUGGUUUUUUG	-0.955
GACCAAUCUGCCCUCAGAGCUCGAGAACAUCUUCGGAUGCAGAGGAGGCAGGCAUCGGUGGCGCGAUAGUGCAAACGUCCUCAACCUCCAAUGCAUCCCACCACAUGAUGAUGCCUGAAGAGCUUUGGGUUUUUG	-0.505
GACCAAUCUGCCCUCAGAGCUCGAGAACAUCUUCGGAUGCAGAGGAGGCAGGCAUCGGUGGCGCGAUAGCGCAAACGCCCUCAACCUCCAAUGCAUCCCACAACAUGAUGAUGCCUGAAGAGCCUUGGUUUUUUG	-1.97
GACCAAUCUGCCCUCAGAGCUCGAGAACAUCUUCGGAUGCAGAGGAGGCAGGUUUCGGUGGCGCGAUAGCGCCAACGUCCUCAACCACCAAUGCAUCCCACCACAUGAUGAUGCCUGAAGAGCCUUGGUUUUUUG	-0.467
GACCAAUCUGCCCUCAGAGCUCGAGAACAUCUUCGGAUGCAGAGGAGGCAGGCAUCGGUGGCGCGAUAGCGCCAACGUCCUCAACCUCCAAUGCCUCCCACCACAUGAUGAUGCCUGAAGAGCCUUGGUUUUUUG	-0.767
GACCAAUCUGCCCUCAGAGCUCGAGAACAUCUUCGGAUGCAGAGGAGGCAGGCAUCGGUGGCGCGAUAGCGCCAACGUCCUCAACCUCCAAUGCAUCUCACCACAUGAUGAUGCCUGAAGAGCCUUGGGUUUGUG	-3.2
GACCAAUCUGCCCUCAGAGCUCGAGAACAUCUUCGGAUGCAGAGGAGGCAGGCAUCGGUGGCGCGAUAGCGCCUACGUCCUCAACCUCCAAUGCAUCCCACCACAUGAUGAUGCCUGAAGAGCGUUGGUUUUUUG	0.443
GACCAAUCUGCCCUCAGAGCUCGAGAACAUCUUCGGAUGCAGAGGAGGCAGGCAUCGGUGGCGCGAUAGCGCCAACGUCCUUAACCUCCAAUGCAUCCCACCACAUGAUGAUGCCUGAAGAGCCUUGGUUUUUUG	-0.0762
GACCAAUCUGCCCUCAGAGCUCGAGAACAUCUUCGGAUGCAGAGGAGGCAGGCAUCGGUGGCGCGAUAGGGCCAACGUCCUCAACCUCCAAUGCAUCCCACCACAUGAUGAUGCUUGAAGAGCCUUGGUUUUUUG	-5.02
GACCAAUCUGCCCUCAGAGCUCGAGAACAUCUUCGGAUGCAGAGGAGGCAGGCAUCGGUGGCGCGAUAGCGCCAACGUCCUCAACCUGCAAUGCAUCCCACCACAUGAUGAUGCCUGAAGAGCCUUGGUUUUUUU	-1.43
GACCAAUCUGCCCUCAGAGCUCGAGAACAUCUUCGGAUGCAGAGGAGGCAGGCAUCGGUGGUGUGAUAGCGCCAACGUCCUCAACCUCCAAUGCAUCCCACCACAUGAUGAUGCCUGAAGAGCCUUGGUUUUUUG	-0.217
GACCAAUCUGCCCUCAGAGCUCGAGAACAUCUUCGGAUGCAGAGGAGGCAGGCAUCGGUGGAACGAUAGCGCCAACGUCCUCAACCUACAAUGCAUCCCACCACAUGAUGAUGCCUGAAGAGCCUUGGUUUUUUG	-3.95
GACCAAUCUGCCCUCAGAGCUCGAGAACAUCUUCGGAUGCAGAGGAGGCAGGUUUCGGUGGCGCGAUAGCGCCAACGUCCUCAACCUCCAAUGCAUCCCACCACAUGAAGAUGCCUGAAGAGCCUUGGUUUUUUG	-5.04
GACCAAUCUGCCCUCAGAGCUCGAGAACAUCUUCGGAUGCAGAGGAGGCAGGCAUCGGUGGCGCGAUAGCGGCAACGUCCUCAACCUCCAAUGCAUCCCACCAUAUGAUGAUACCUGAAGAGCCUUGGUUUUUUG	-3.29
